This assay addresses T1, wild-type Fc (wtFc), recombinant Fc fragment of human IgG1 (human).
T1 construct: human IgG1 heavy chain constant region, Fc fragment, residues 223-447; also called IgG Fc
As to the kind of experiment: SPR; BIAcore 2000; wtFc amine-coupled to a CM5 chip (440 RU); CgE injected, three-fold dilutions from 30 μM to 5 nM; pH 8 (50 mM HEPES pH 8.0, 150 mM NaCl, 3 mM EDTA, 0.005% P-20); equilibrium response fitted to a single-site model. The settings on record: both partners purified.

B1: C-terminal domain of the gE ectodomain (CgE), HSV-1 gE residues 213-390 (domain or fragment)
chain: APEVSHVRGVTVRMETPEAILFSPGETFSTNVSIHAIAHDDQTYSMDVVWLRFDVPTSCAEMRIYESCLYHPQLPECLSPADAPCAASTWTSRLAVRSYAGCSRTNPPPRCSAEAHMEPVPGLAWQAASVNLEFRDASPQHSGLYLCVVYVNDHIHAWGHITISTAAQYRNAVVEQPL
modifications: secreted from High 5 insect cells; disulfides Cys271-Cys297, Cys280-Cys289 and Cys314-Cys323 (gE numbering = entity position + 211); C-terminal Factor Xa site and 6xHis left out
What is called Kd is the free concentration of one partner at which half of the binding sites on the other are occupied at equilibrium, for simple one-to-one binding. For the molecule B1, the Kd was approximately 7 µM.
